T1: GLIS2 (Homo sapiens, UniProt Q9BZE0)
T1 sequence: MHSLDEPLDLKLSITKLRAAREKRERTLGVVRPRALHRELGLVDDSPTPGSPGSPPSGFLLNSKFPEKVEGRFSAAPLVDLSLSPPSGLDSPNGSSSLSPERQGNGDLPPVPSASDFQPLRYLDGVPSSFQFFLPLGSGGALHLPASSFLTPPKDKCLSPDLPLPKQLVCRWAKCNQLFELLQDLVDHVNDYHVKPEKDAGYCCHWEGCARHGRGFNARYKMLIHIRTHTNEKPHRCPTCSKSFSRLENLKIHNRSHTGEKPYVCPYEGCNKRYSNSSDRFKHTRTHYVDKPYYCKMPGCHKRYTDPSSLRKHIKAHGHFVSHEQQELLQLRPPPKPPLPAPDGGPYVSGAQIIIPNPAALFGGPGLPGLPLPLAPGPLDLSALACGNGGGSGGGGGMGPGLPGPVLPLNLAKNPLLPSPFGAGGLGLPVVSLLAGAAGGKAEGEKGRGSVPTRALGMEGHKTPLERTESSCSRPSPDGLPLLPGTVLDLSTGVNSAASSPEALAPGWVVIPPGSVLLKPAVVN

T2: CTCF (Homo sapiens, UniProt P49711)
T2 sequence: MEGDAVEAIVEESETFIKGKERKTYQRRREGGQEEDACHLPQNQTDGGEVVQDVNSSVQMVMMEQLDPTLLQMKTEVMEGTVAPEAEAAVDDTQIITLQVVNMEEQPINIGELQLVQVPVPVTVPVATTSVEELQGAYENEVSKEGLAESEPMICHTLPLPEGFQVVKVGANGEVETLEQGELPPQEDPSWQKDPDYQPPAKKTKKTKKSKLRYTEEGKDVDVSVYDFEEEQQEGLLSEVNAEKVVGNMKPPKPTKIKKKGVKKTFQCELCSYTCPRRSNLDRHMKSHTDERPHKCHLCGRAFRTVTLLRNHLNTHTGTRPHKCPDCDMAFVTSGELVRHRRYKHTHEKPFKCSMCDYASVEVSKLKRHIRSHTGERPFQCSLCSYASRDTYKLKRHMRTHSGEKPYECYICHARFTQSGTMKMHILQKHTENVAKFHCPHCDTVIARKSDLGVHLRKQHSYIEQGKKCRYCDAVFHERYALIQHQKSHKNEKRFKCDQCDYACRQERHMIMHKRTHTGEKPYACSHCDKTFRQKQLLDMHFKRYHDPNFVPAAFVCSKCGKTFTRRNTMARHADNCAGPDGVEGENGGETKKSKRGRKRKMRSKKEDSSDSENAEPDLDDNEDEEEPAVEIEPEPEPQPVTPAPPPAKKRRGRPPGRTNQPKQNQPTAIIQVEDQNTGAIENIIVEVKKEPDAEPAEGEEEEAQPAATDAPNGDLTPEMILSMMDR

T3: ZNF512B (Homo sapiens, UniProt Q96KM6)
T3 sequence: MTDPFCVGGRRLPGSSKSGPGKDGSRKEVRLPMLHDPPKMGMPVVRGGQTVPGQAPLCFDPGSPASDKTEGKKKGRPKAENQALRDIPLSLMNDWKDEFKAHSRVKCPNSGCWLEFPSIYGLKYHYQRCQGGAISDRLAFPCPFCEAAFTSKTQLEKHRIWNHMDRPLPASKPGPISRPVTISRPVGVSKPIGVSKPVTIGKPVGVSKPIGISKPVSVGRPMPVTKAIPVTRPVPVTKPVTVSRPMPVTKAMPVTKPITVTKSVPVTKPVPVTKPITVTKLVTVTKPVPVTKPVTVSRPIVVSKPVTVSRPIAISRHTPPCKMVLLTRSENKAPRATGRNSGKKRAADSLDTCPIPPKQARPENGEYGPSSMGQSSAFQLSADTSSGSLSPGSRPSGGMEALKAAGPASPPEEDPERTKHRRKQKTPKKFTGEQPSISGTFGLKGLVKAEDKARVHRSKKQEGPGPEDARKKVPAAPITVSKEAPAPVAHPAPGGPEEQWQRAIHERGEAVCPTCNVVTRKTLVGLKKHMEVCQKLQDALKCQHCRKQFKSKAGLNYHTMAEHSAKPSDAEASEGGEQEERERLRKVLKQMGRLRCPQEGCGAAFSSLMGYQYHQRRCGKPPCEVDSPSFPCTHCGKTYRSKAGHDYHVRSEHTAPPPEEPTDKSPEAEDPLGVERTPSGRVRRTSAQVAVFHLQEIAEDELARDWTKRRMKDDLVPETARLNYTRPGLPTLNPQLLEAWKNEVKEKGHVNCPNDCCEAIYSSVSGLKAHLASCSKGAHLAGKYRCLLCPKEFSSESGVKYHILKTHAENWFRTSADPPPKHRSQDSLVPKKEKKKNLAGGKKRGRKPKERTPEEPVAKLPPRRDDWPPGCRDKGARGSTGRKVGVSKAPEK

B1: CTCF (dsDNA)
DNA 1: TCAGAGTGGCGGCCAGCAGGGGGCGCCCTTGCCAGA
DNA 2: TCTGGCAAGGGCGCCCCCTGCTGGCCGCCACTCTGA
B2: TEAD (dsDNA)
DNA 1: TCGGGACCCAGGCCTGGAATGTTTCCACC
DNA 2: GGTGGAAACATTCCAGGCCTGGGTCCCGA

Tests used:
Assay in all cases: pulldown; 150 mM NaCl, 50 mM Tris pH 8, 0.25% NP-40, 1 mM TCEP; 4 C, 2 h; 100 ug HeLa nuclear lysate
Conditions in all cases: protein: extract; label: 5' biotin (strand 1)
[1] = biological target: T1, GLIS2
[2] = biological target: SMAD4 (Homo sapiens, UniProt Q13485)
[3] = biological target: T2, CTCF
[4] = biological target: T3, ZNF512B
[5] = biological target: NFAT5 (Homo sapiens, UniProt O94916)
[6] = biological target: TEAD4 (Homo sapiens, UniProt Q15561)
Sequence of TEAD4 (Q15561 whole entry): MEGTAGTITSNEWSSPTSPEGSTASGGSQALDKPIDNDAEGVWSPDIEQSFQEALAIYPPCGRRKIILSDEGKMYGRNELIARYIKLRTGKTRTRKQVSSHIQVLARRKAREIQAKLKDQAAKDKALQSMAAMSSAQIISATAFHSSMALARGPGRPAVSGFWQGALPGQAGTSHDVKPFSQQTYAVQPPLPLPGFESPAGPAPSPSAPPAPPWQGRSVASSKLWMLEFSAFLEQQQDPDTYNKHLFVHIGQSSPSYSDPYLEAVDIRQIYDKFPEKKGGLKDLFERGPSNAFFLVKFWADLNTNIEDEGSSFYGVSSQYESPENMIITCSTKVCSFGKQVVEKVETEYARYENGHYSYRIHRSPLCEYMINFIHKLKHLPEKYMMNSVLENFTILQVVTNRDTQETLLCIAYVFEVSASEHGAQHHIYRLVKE

Sequence of NFAT5 (O94916 whole entry): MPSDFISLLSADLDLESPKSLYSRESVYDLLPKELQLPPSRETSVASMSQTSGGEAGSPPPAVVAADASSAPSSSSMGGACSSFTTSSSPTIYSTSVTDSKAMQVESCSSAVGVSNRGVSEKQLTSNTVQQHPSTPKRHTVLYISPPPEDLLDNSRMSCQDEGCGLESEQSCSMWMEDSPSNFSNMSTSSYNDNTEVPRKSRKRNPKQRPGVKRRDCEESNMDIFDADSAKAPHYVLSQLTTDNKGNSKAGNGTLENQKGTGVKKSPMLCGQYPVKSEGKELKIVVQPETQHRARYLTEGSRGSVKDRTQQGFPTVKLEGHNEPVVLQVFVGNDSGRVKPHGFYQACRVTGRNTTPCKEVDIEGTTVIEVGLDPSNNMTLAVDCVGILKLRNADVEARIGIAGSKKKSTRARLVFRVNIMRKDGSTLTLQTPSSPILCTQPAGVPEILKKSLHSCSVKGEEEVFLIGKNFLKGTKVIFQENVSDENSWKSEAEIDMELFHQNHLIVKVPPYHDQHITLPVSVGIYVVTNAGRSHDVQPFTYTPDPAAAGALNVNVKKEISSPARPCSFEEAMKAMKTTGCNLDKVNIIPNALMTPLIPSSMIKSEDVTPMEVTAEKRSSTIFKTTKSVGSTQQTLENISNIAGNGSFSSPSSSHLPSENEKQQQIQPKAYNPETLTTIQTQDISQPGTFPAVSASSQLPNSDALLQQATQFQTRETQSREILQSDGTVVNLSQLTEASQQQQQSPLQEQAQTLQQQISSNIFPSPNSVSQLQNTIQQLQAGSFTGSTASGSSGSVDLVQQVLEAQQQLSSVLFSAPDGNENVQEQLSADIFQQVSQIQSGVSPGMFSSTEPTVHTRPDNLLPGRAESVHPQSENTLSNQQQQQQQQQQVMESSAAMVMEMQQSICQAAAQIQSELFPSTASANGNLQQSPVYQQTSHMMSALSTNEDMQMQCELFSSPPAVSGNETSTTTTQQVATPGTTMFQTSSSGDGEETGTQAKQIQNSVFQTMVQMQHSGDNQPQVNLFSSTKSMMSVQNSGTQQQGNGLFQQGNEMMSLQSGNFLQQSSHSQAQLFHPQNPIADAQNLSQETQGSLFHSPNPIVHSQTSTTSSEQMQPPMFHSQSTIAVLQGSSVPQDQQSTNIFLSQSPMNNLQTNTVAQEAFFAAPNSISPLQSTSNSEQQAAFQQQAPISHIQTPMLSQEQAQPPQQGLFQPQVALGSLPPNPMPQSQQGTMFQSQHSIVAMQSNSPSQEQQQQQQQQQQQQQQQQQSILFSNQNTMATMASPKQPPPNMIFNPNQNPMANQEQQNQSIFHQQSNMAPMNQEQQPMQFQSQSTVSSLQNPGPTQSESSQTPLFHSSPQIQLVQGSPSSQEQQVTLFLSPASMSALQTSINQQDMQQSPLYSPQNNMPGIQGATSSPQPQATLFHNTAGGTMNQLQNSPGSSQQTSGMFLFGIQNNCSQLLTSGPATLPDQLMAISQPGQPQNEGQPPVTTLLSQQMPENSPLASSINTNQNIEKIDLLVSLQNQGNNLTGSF
Sequence of SMAD4 (Q13485 whole entry): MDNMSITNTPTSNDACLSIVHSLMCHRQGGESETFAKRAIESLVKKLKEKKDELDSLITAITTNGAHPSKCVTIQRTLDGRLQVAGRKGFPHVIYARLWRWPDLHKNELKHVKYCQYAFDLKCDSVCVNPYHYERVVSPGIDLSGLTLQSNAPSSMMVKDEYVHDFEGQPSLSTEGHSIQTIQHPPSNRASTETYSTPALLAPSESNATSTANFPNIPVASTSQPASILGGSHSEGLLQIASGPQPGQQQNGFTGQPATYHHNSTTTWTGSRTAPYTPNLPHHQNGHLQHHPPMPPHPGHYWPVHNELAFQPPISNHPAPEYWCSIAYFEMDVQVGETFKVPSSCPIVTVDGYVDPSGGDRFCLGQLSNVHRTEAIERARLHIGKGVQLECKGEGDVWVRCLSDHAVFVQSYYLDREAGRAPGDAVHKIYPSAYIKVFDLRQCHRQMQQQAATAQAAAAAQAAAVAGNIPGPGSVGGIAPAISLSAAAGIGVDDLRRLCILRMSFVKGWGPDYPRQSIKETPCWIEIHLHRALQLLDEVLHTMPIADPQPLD

| Binder | apparent K (half saturation) [1] [nM] | apparent K (half saturation) [2] [nM] | apparent K (half saturation) [3] [nM] | apparent K (half saturation) [4] [nM] | apparent K (half saturation) [5] [nM] | apparent K (half saturation) [6] [nM] |
| --- | --- | --- | --- | --- | --- | --- |
| B1 | 15 | 153 | 16.1 | 353 |  |  |
| B2 |  |  |  |  | 94.6 | 15.3 |
